Measurements from paper PMC2810336, “Mutational Analysis of Highly Conserved Residues in the Phage PhiC31 Integrase Reveals Key Amino Acids Necessary for the DNA Recombination”.
Where a chain is given by its changes, count along the chain named.

How the values were obtained:
Assay in all cases: EMSA; 400 nM protein; 50 ng/ul Poly (competitor (so in the source)), 0.05% NP-40, 50 mM KCl, 5 mM MgCl2, 10 mM EDTA, 20 ul, 0.4 ng (16 fmol) probe; 30 min at room temperature (Methods) or 30 C; pH not stated; synapsis 2 h at 30 C
Conditions in all cases: protein: recombinant; tags: C-terminal His; chain copies: 2; label: biotin, double-strand end-labeled; blunt
[1] = target: T1, phiC31 integrase V566A (Streptomyces phage phiC31, UniProt Q38194 1-613, V566A)
T1 sequence: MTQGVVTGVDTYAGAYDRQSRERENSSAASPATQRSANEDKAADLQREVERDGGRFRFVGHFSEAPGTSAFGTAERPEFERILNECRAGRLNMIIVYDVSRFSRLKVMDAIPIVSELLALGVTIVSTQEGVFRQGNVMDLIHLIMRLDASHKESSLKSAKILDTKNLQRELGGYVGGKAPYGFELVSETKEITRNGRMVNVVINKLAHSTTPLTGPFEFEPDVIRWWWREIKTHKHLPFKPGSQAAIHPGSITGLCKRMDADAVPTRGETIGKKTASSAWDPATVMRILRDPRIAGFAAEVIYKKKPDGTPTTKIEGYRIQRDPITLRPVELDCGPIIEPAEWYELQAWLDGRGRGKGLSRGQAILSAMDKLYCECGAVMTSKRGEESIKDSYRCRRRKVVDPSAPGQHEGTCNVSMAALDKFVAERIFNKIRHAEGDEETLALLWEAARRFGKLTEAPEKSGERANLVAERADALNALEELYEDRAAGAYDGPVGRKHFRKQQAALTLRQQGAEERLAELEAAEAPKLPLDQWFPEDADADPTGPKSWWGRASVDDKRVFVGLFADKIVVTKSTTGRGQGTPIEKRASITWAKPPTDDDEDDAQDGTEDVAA

[2] = target: T2, phiC31 integrase C376A/G377A (Streptomyces phage phiC31, UniProt Q38194 1-613, C376A;G377A)
T2 sequence: T1 sequence with C376A, G377A, A566V

[3] = target: T3, phiC31 integrase C374A (Streptomyces phage phiC31, UniProt Q38194 1-613, C374A)
T3 sequence: T1 sequence with C374A, A566V

Measured: binding signal

B1: attB 41 bp (dsDNA)
DNA 1: CGGGTGCCAGGGCGTGCCCTTGGGCTCCCCGGGCGCGTACT
DNA 2: AGTACGCGCCCGGGGAGCCCAAGGGCACGCCCTGGCACCCG
0 % of WT: [1] | [2] | [3]
